± gives the standard error.
B1: library; numbered along this chain (parent)
chain: MATDAALRRLLRLHRTEIAVAVDSAFPLLHALADHDVVPEDKFQETLHLKEKEGCPQAFHALLSWLLTQDSTAILDFWRVLFKDYNLERYGRLQPILDSFPKDVDLSQPRKGRKPPAVPKALVPPPRLPTKRKASEEARAAAPAALTPRGTASPGSQLKAKPPKKPESSAEQQRLPLGNGIQTMSASVQRAVAMSSGDVPGARGAVEGILIQQVFESGGSKKCIQVGGEFYTPSKFEDSGSGKNKARSSSGPKPLVRAKGAQGAAPGGGEARLGQQGSVPAPLALPSDPQLHQKNEDECAVCRDGGELICCDGCPRAFHLACLSPPLREIPSGTWRCSSCLQATVQEVQPRAEEPRPQEPPVETPLPPGLRSAGEEVRGPPGEPLAGMDTTLVYKHLPAPPSAAPLPGLDSSALHPLLCVGPEGQQNLAPGARCGVCGDGTDVLRCTHCAAAFHWRCHFPAGTSRPGTGLRCRSCSGDVTPAPVEGVLAPSPARLAPGPAKDDTASHEPALHRDDLESLLSEHTFDGILQWAIQSMARPAAPFPS

Variants of: B1
Experiment: AIRE transcriptional activation functional score (insulin promoter-GFP; nonsense median 0, synonymous median 1) (normalised score); higher = higher AIRE activity (more reporter activation)
Settings: with insulin promoter-GFP reporter in HEK293
How it was run: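 The functional score compares variant enrichment between select and non-select populations after subtracting wild type. To obtain it, codon-optimized AIRE NNN-codon libraries spanning three regions were placed by Bxb1 recombinase into Flp-In T-REx HEK293 landing-pad cells with an insulin core promoter-GFP reporter. Cells with the top 10% GFP and unselected integrants were tile-sequenced after mCherry+, BFP− integrants had been sorted at day 7 and grown 7 more days. Only variants with 10 counts per million in non-select were kept, rescaled to nonsense median 0 and synonymous median 1, and averaged across biological replicates.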

Point of comparison: E329D, “AIRE transcriptional activation functional score” value 1.74 ± 0.17. Against it:
- K50Y — lower, -0.654 ± 0.44
- E53L — within error, 1.14 ± 0.54
- H292M — within error, 1.7 ± 0.18
- H292F — lower, 0.915 ± 0.5
- T232A — lower, 0.926 ± 0.13
- V214L — lower, 0.413 ± 0.73
- L32V — lower, -0.331 ± 0.24
- V443N — lower, 0.847 ± 0.14
- D503R — lower, 0.543 ± 0.17
- A373V — lower, 0.766 ± 0.28
- L13Q — lower, 0.368 ± 0.3
- K159N — within error, 1.33 ± 0.49
- K83F — lower, 0.177 ± 0.099
- A510E — lower, 1.33 ± 0.12
- A510P — lower, 1.35 ± 0.16
- C437D — lower, 0.609 ± 0.19
- P125C — lower, 0.918 ± 0.33
- E329A — lower, 1.11 ± 0.39
- E329Q — lower, -1.43 ± 0.53
- I96G — lower, -0.689 ± 0.54
- L7C — lower, -1 ± 0.98
- E353C — lower, 1.2 ± 0.23
- P542R — lower, 0.209 ± 0.13
- P542I — lower, 1.09 ± 0.22
- A202V — lower, 1.11 ± 0.082
- P119M — lower, 0.545 ± 0.12
- V301C — lower, 1.08 ± 0.12
- C457Q — lower, 0.613 ± 0.35
- K161P — lower, 0.742 ± 0.53
- K161A — lower, 0.612 ± 0.43
- K161G — within error, 1.56 ± 0.57
- V188A — lower, 0.635 ± 0.29
- D312H — lower, 1 ± 0.13
- D312N — lower, 0.702 ± 0.15
- S411H — lower, 0.897 ± 0.04
- K221P — lower, 0.766 ± 0.058
- R190A — lower, 0.878 ± 0.41
- R190I — lower, 0.118 ± 0.15
- S338T — lower, 1.21 ± 0.23
- P129I — lower, 0.253 ± 0.74
- P481W — lower, 1.39 ± 0.17
- G498L — lower, 1.11 ± 0.17
- G251S — lower, 0.796 ± 0.22
- R465D — lower, 0.53 ± 0.072
- G333Q — lower, 0.597 ± 0.094
- V345L — lower, 1.03 ± 0.23
- V345G — lower, 1.12 ± 0.068
- L418S — lower, 0.85 ± 0.24
- P367M — lower, 0.302 ± 0.086
- I528N — lower, 0.204 ± 0.097
- S107T — lower, 0.785 ± 0.34
- T68W — lower, -0.374 ± 0.096
- L175C — lower, 0.818 ± 0.68
- N427V — lower, 1.06 ± 0.18
- A5T — lower, 1.04 ± 0.38
- D410K — lower, 0.35 ± 0.38
- R139Y — within error, 1.25 ± 0.39
- A21W — lower, -0.574 ± 0.14
- A403Y — lower, 0.507 ± 0.33
- A403K — lower, 1.06 ± 0.21
- I309A — lower, 0.827 ± 0.29
- I309D — lower, 0.964 ± 0.094
- G277Q — lower, 0.825 ± 0.064
- P490W — lower, -0.0714 ± 0.41
- K42T — lower, -0.0654 ± 0.27
- R378G — lower, 0.98 ± 0.35
- P497Y — lower, 1.1 ± 0.21
- H512G — lower, 0.716 ± 0.23
- H35D — lower, -0.476 ± 0.17
- H448Y — lower, 1.26 ± 0.16
- H448L — lower, 1.07 ± 0.17
- D515P — lower, 0.67 ± 0.093
- E171G — within error, 1.27 ± 0.47
- E40T — lower, -0.598 ± 1.6
- E40C — lower, -1.11 ± 0.58
- I18A — lower, -0.708 ± 0.62
- K133A — lower, -0.0211 ± 0.57
- K133H — lower, 0.287 ± 0.57
- K133D — lower, 0.12 ± 0.12
- H523G — within error, 1.65 ± 0.092
- K294A — lower, 0.459 ± 0.36
- S278P — lower, 1.12 ± 0.29
- S278A — lower, 0.851 ± 0.21
- R303Q — lower, 1.23 ± 0.3
- K222V — lower, 0.137 ± 0.41
- G54W — lower, 0.0658 ± 0.092
- S324F — lower, 1.09 ± 0.27
- S324I — lower, 1.06 ± 0.23
- L28N — lower, -1.05 ± 0.21
- L28G — lower, 0.239 ± 0.38
- A265Q — lower, 0.479 ± 0.37
- A265S — lower, 1.03 ± 0.17
- R456P — lower, 1.1 ± 0.16
- R456L — lower, 1.04 ± 0.22
- G91Y — higher, 2.5 ± 0.45
- C55V — lower, 0.628 ± 0.59
- C55W — lower, -0.244 ± 0.25
- V348P — lower, 0.929 ± 0.38
- S339C — lower, 0.985 ± 0.18
- E296Y — lower, 0.486 ± 0.15
- E296P — lower, 0.799 ± 0.32
- V37F — lower, 0.178 ± 0.24
- A160N — lower, 0.242 ± 0.33
- S491R — lower, 0.586 ± 0.16
- S491Q — lower, 0.998 ± 0.17
- T468K — lower, 0.654 ± 0.15
- P101A — lower, 0.415 ± 0.2
- I209R — lower, 0.917 ± 0.066
- P365Q — lower, 0.92 ± 0.13
- F318W — lower, 0.907 ± 0.023
- C337I — lower, 0.888 ± 0.13
- K243S — lower, 1 ± 0.5
- K243I — lower, 1.02 ± 0.36
- Q346K — lower, 0.899 ± 0.15
- S185K — lower, 1 ± 0.13
- D4I — lower, 0.179 ± 1
- D4P — lower, -0.0888 ± 0.36
- E485S — lower, 0.955 ± 0.21
- E485A — lower, 0.466 ± 0.38
- E485Q — lower, 0.397 ± 0.44
- V226R — lower, 0.531 ± 0.26
- M388T — lower, 0.897 ± 0.22
- P430S — lower, 0.992 ± 0.36
- Q262E — lower, 1.38 ± 0.083
- Q262F — within error, 1.61 ± 0.12
- R8N — lower, -0.26 ± 0.14
- S239G — lower, 1.05 ± 0.19
- L529D — lower, -0.829 ± 0.32
- E508C — lower, 0.854 ± 0.16
- A19D — lower, 0.412 ± 0.59
- A19H — lower, 0.194 ± 0.27
- L323S — lower, 0.985 ± 0.23
- H507L — lower, 1.01 ± 0.2
- S71H — within error, 1.32 ± 0.71
- R127V — lower, 0.801 ± 0.21
- A451V — lower, 0.438 ± 0.078
- A451L — lower, 0.76 ± 0.37
- L519N — lower, -0.347 ± 0.28
- Q94G — within error, 0.865 ± 0.84
- D36Q — lower, -0.178 ± 0.26
- C299L — lower, 0.726 ± 0.28
- C299W — lower, 0.647 ± 0.032
- C299E — lower, 0.32 ± 0.12
- Q213T — lower, 0.965 ± 0.1
- Q213I — lower, -0.822 ± 0.11
- G313L — lower, 1.28 ± 0.1
- G313C — within error, 1.51 ± 0.28
- D442C — lower, 0.845 ± 0.059
- G155F — within error, 1.61 ± 0.35
- A413F — lower, 0.975 ± 0.14
- G201S — lower, 0.809 ± 0.35
- L414Y — lower, -0.109 ± 0.22
- R433L — lower, 0.786 ± 0.24
- R328E — lower, 1.06 ± 0.071
- R328G — lower, 0.729 ± 0.26
- P499A — lower, 1.22 ± 0.3
- L97T — lower, -0.118 ± 0.59
- L146N — lower, 0.353 ± 0.38
- P282G — lower, 1.03 ± 0.24
- D238C — lower, 1.24 ± 0.15
- D238S — lower, 0.788 ± 0.4
- Y231K — lower, 0.204 ± 0.054
- Y231W — lower, 1.05 ± 0.014
- C311V — lower, 0.86 ± 0.2
- L122A — lower, 0.747 ± 0.24
- T130N — lower, 0.915 ± 0.14
